From patent US20110239327A1, “Nematicidal Effects of Cysteine Proteinases and Methods of Use Thereof to Treat Nematode Infestation” (priority 2007, published 2011)
Entries after “also recorded” stand apart in the source; their conditions may differ.

How the values were obtained:
G. rostochiensis J2s = experiment: In vitro mobility and cuticle damage of G. rostochiensis J2s; format: cell-based, Globodera rostochiensis
Description: Eggs of M. incognita race 1 from North Carolina State University, USA, and M. javanica from Portugal were collected from the roots of infected tomato plants grown in a glasshouse at 23° C. in a 16:8 h light-dark regime. Eggs were extracted using 1% hypochlorite (NaClO) solution (Hussey and Barker, 1973) or by picking egg masses from the infected roots. M. incognita and M. javanica were both used in the experiments and produced similar results. Juveniles (J2) were hatched from the eggs and egg masses in water. Globodera rostochiensis cysts were washed extensively in distilled water. Hatched J2s were obtained by incubating cysts in distilled water for 4 days followed by exposure to potato root diffusate (PRD).
Approximately 1000 J2s (second juvenile stage) of M. incognita or M. javanica were incubated per well of a 48-well plate with the following active enzyme concentrations (determined by E-64 titration) of papain dissolved in distilled water containing 16 mM L-cysteine (to activate the cysteine proteinase): 1.5 μM, 3 μM, 6.25 μM, 12.5 μM, 25 μM, 50 μM, 75 μM and 100 μM. […] The number of active J2s per well was counted prior to the addition of papain, and then the J2s were incubated in the dark at room temperature for 3 h. The number of mobile J2s per well was counted after 60, 120 and 180 mins. […]

Pratylenchus penetrans = experiment: In vitro live/dead count of Pratylenchus penetrans; format: cell-based; parameters: concentration of papain latex that killed the nematodes: unit not given here
Description: Eggs of M. incognita race 1 from North Carolina State University, USA were collected from tomato-infected roots grown in a glasshouse at 23° C. in a 16:8 h light-dark regime. Eggs were extracted using 1% hypochlorite (NaClO) solution (Hussey and Barker, 1973) or by picking egg masses from tomato-infected roots. Juveniles (J2) were hatched from the eggs and egg masses in water. Heterodera glycines eggs were obtained from soil samples stored in Rothamsted-Research. Second stage juveniles (J2) were hatched from the eggs in water after 10 days. Pratylenchus penetrans were a gift from Dr. Deeren Anne-Marie from the Institute for Agricultural and Fisheries Research, Merelbeke, Belgium. The beneficial nematodes Steinernema feltiae and Heterorhabditis megidis were a gift from Dr. Paul Williams from Becker Underwood.
Control wells were set up which contained J2s and distilled water with 16 mM L-cysteine. Each enzyme concentration and the controls were set up in duplicate (i.e. n=2). […] The number of live and dead J2s per well was counted after each enzyme incubation. The same procedure was followed when setting up further experiments to compare the effects of these enzymes with Heterodera glycines J2, Pratylenchus penetrans, Steinernema feltiae and Heterorhabditis megidis.

M. incognita J2 = experiment: In vitro assay of M. incognita J2 present in soil mixtures; format: cell-based
Description: The same procedure described above was used to determine the effect of the cysteine proteinases against M. incognita J2 present in soil mixtures. The following soil mixtures were used: fine and coarse sand, peat and fine/coarse sand and loam mix and fine/coarse sand. These soil mixtures were prepared at concentrations of 1:1, 1:3 and 1:6 and autoclaved at […] for 20 min. Peat and loam-mix were obtained from Rothamsted-Research. Soil mixtures were added to 24 well plates (0.5 g) and wetted for 16 hs with either PBS ph 7.2, Tx-100, Milk 5% or cysteine proteinases, in order to wet the soil and block non-specific binding sites present in the soil particles. Then, approximately 100 J2 were added to the wells, followed by cysteine proteinases with 16 mM of L-cysteine to activate the cysteine proteinases or water as control. After 16 hs at room temperature in the dark, individual wells of the 24 well plates were flushed with 1 ml of distilled water to recover the nematodes from the soil mixtures. These were placed in a 24 well plate and the number of dead/live nematodes scored under microscopic observation.
These in vitro experiments were performed in 24 well plates using sterile soil mixtures to diminish the possibility of biological degradation of the enzyme by microorganisms. […] The number of live nematodes was counted before and after enzyme treatment. […]

B1: papain (protein, UniProt P00784 134-345, looked up)
Papain: IPEYVDWRQKGAVTPVKNQGSCGSCWAFSAVVTIEGIIKIRTGNLNEYSEQELLDCDRRSYGCNGGYPWSALQLVAQYGIHYRNTYPYEGVQRYCRSREKGPYAAKTDGVRQVQPYNEGALLYSIANQPVSVVLEAAGKDFQLYRGGIFVGPCGNKVDHAVAAVGYGPNYILIKNSWGTGWGENGYIRIKRGTGNSYGVCGLYTSSFYPVKN
notes: cysteine proteinase from Carica papaya, Merops C01.001, Sigma P3125
mobility (proportion of active worms) of G. rostochiensis J2s (G. rostochiensis J2s; 25 μM active enzyme): reduction in mobility was significantly greater overall; also recorded: Reductions in the proportion of active worms were evident | incubation needed before damage to the cuticle, compared to Meloidogyne spp. (G. rostochiensis J2s; data not shown): needed longer incubation periods | concentration of papain latex that killed the nematodes (Pratylenchus penetrans): 62.504 | recovery of mobility (Pratylenchus penetrans; after 48 hs): no recovery of mobility | nematode mortality (M. incognita J2; papain latex 100 μM, 16 hours, all soil mixtures (sand; 1:3 sand/loam mix; 1:3 sand/peat)): 40-50% | state of the nematodes after two applications of papain to soil (M. incognita J2; soil with 16% organic matter wetted with 250 μM papain without L-cysteine, then 250 μM papain in 16 mM L-cysteine, 16 hs): most nematodes were dead
